Measurements: article PMC6937242, “Characterization and engineering of broadly reactive monoclonal antibody against hepatitis B virus X protein that blocks its interaction with DDB1” (Scientific Reports, 2019)
Where no end group is shown, it is not given here.

B1: Igκ-VHVL(2A7)-Fc (scFv, V domains shown)
VH: QVTLKESGPGILQPSQTLSLTCSFSGFSLSTSGMGVVWIRQPSGKGLEWLAHIWWDDDKYYNTALKSGLTISKDTSKNQVFLKIASVDTADTATYYCARMPYYDYDGGVAYWGQGTLVTVSA
VL: DIVMTQSPASLVVSLGQRATISCRASKSVSTSGYSYMYWYQQKPGQPPKLLIYLASNLESGVPARFSGSGSGTDFTLNIHPVEEEDAATYYCQHSRELPLTFGAGTKLELK
notes: as the VH of m1 (2A7 VH); linker, printed as (GlyGlyGlyGlySer)3; as the VL of m1 (2A7 VL1); also called Igκ-VHVL-Fc; 2A7-derived scFv; source: HEK293T, transfected; secreted into supernatant, or in cell lysate; not shown: Fc (human IgG1), C-terminal, kept
B2: mouse monoclonal antibody against HBx (anti-HBx 2A7) (antibody, V domains shown)
VH: B1 VH
VL: B1 VL
notes: 2A7 VH; 2A7 CH, mapped to mouse IGHG1 (immunoglobulin heavy constant gamma 1); 2A7 VL1; 2A7 CK, κ-type light chain constant region; IgG1 subclass, κ light chain (VL1/CK and VH/CH confirmed by LC-MS/MS); also called anti-HBx mAb 2A7; 2A7 mAb; source: SP2/0 hybridoma cell line, purified; also recovered from lysed Huh-7 or HepG2 cells after delivery with TR16-Tat
B3: recombinant 2A7 antibody (antibody, V domains shown)
VH: B1 VH
VL: B1 VL
notes: as the VH of m1 (2A7 VH); mouse IgG2a heavy chain constant fragment; as the VL of m1 (2A7 VL1); mouse κ light chain constant fragment; source: Expi293F cells, co-transfected, purified from culture supernatant (Protein A)

These molecules were tested against T1, FLAG-tagged wild type BPS HBx (Hepatitis B virus genotype B, isolate …, UniProt P20975, strain) (assay: co-IP; HEK293T co-transfected with Igκ-VHVL-Fc and FLAG-tagged wild type or mutant BPS HBx; lysate; anti-FLAG as capture antibody; blots with anti-hFc and anti-FLAG). Settings: partners not purified.
T1 construct: HBx (X protein) of hepatitis B virus genotype B isolate BPS, 154 a.a; also called FLAG-HBx (wild type); wild-type HBx; source: HEK293T, transfected, in lysate or in fixed cells; HepG2, transfected, in lysate; not shown: FLAG, N-terminal, kept
B1: binds.

What follows are molecules tested against mouse monoclonal antibody against HBx (anti-HBx 2A7) (assay: Western blot with densitometry). Settings: HEK293T lysates; 2A7 signal adjusted against anti-FLAG signal, normalized against BPS HBx; parent: 100.
“FLAG-tagged wild type BPS HBx 77-79 (3 Ala)” was tested, and the percent of parent was 97%.
In the case of “FLAG-tagged wild type BPS HBx 80-82 (3 Ala)”, the percent of parent is reported as 450%.
“FLAG-tagged wild type BPS HBx 98-100 (3 Ala)” showed a percent of parent of 140%.
“FLAG-tagged wild type BPS HBx 101-103 (3 Ala)” gave a percent of parent of 296%.
With “FLAG-tagged wild type BPS HBx 104-106 (3 Ala)” the percent of parent was 187%.
With “FLAG-tagged wild type BPS HBx H86A; R87A; N88A” the percent of parent was 334%.
FLAG-tagged wild type BPS HBx H94A was tested, and the percent of parent was 0%.
Molecule FLAG-tagged wild type BPS HBx K91A has a percent of parent of 36%.
With FLAG-tagged wild type BPS HBx K95A the percent of parent was 0%.
For “FLAG-tagged wild type BPS HBx K95A; R96A; T97A”, the percent of parent was 0%.
FLAG-tagged wild type BPS HBx L89A showed a percent of parent of 151%.
With “FLAG-tagged wild type BPS HBx L89A; P90A; K91A” the percent of parent was 36%.
Work on FLAG-tagged wild type BPS HBx L93A yielded a percent of parent of 25%.
Molecule FLAG-tagged wild type BPS HBx L98A has a percent of parent of 90%.
FLAG-tagged wild type BPS HBx P90A gave a percent of parent of 7%.
FLAG-tagged wild type BPS HBx R96A gave a percent of parent of 81%.
For FLAG-tagged wild type BPS HBx T97A, the percent of parent was 99%.
In the case of “FLAG-tagged wild type BPS HBx V83A; N84A”, the percent of parent is reported as 349%.
FLAG-tagged wild type BPS HBx V92A gave a percent of parent of 2%.
“FLAG-tagged wild type BPS HBx V92A; L93A; H94A” gave a percent of parent of 0%.

Target: T2, biotinylated BPS HBx peptide a.a. 89–104 (Hepatitis B virus genotype B, isolate …, UniProt P20975, strain, also: biotinylated)
T2 construct: HBx of hepatitis B virus genotype B isolate BPS, a.a; a.a; also called peptide harboring a.a; source: synthetic peptide (GL Biochem)
T2 chain: LPKVLHKRTLGLSAMS
Assay: ELISA; biotinylated 16-mer HBx peptides captured on streptavidin-coated plates; secreted Igκ-VHVL-Fc added; HRP anti-human Fc pAb; OD450
Settings: one partner purified
B1: binds.

The molecules below were run against T3, bacterially expressed BPS-encoded HBx protein (Hepatitis B virus genotype B, isolate …, UniProt P20975, strain) (assay: ELISA; recombinant BPS HBx coated at 100 ng/well in bicarbonate/carbonate buffer pH 9.6; purified antibody added, 37 °C for 1 h; HRP anti-mouse pAb; OD450). Settings: both partners purified.
T3 construct: HBx (X protein) of hepatitis B virus genotype B isolate BPS; also called recombinant HBx protein; BPS HBx (ELISA); source: bacterially expressed, purified under denaturing conditions
B2: binds.

What follows are molecules tested against T4, FLAG-tagged WT (genotype C isolate) HBx (Hepatitis B virus genotype C, isolate …, UniProt P0C686, strain) (assay: Western blot; lysates of HEK293T cells transfected with FLAG-tagged HBx variants, 48 hours, resolved and blotted; probed with 2A7; anti-FLAG as control; densitometry normalised to anti-FLAG and to BPS HBx). Settings: one partner purified.
T4 construct: 'WT' is here the name of an isolate, not 'wild type'; also called WT HBx; source: HEK293T, transfected, in lysate or in fixed cells; not shown: FLAG, N-terminal, kept
B2: binds.

Target: T2, biotinylated BPS HBx peptide a.a. 89–104
Assay: ELISA; biotinylated 16-mer HBx peptides captured on streptavidin-coated plates at 500 ng/well in PBS; antibody added, 37 °C for 1 h; HRP anti-mouse pAb; OD450
Settings: both partners purified
B2: binds.
B3: binds.
